Measurements from patent US20210403601A1 (FAPON BIOTECH, published 2021).
Changes are numbered by the printed parent chain. Like-named read-outs stand apart in the source and are kept apart here. One block for each binder: values may come before it.

Columns and labels:
Taq DNA polymerase [1] = target: T1, Taq DNA polymerase (Thermus aquaticus, UniProt P19821 1-832); assay: ELISA on coated Taq, antibody 0 ng/ml (blank)
T1 construct: also called Taq enzyme; Taq DNA enzyme
Experimental: (§1) The antibody activity was detected after mutation. Taq DNA enzyme was diluted with coating solution to the specified concentration, 100 μL per well overnight at 4° C.; which was washed twice with washing solution and patted dry on the next day; with addition of blocking solution (20% BSA+80% PBS), 120 μL per well at 37° C. for 1 h and patted dry; added the diluted Taq monoclonal antibodies, 100 μL/well at 37° C. for 30 min (partial supernatant for 1 h); washed 5 times with washing solution and patted dry; added goat anti-mouse IgG-HRP at 100 μL per well at 37° C. for 30 min; washed 5 times with washing solution and patted dry; added color developing solution A (50 μL/well), added color developing solution B (50 μL/well) for 10 min; added stop solution, 50 μL/well; followed by reading the OD value at 450 nm (reference 630 nm) on the microplate reader.

Taq DNA polymerase [2] = target: T1, Taq DNA polymerase; assay: ELISA on coated Taq, antibody 0.46 ng/ml
Experimental: as §1

Taq DNA polymerase [3] = target: T1, Taq DNA polymerase; assay: ELISA on coated Taq, antibody 12.35 ng/ml
Experimental: as §1

Taq DNA polymerase [4] = target: T1, Taq DNA polymerase; assay: AMC sensor, antibody immobilised
Taq DNA polymerase [5] = target: T1, Taq DNA polymerase; assay: ELISA on coated Taq, antibody 4.12 ng/ml
Experimental: as §1

Taq DNA polymerase [6] = target: T1, Taq DNA polymerase; assay: ELISA on coated Taq, antibody 1.37 ng/ml
Experimental: as §1

Taq DNA polymerase [7] = target: T1, Taq DNA polymerase; assay: ELISA on coated Taq, antibody 37.04 ng/ml
Experimental: as §1

Taq DNA polymerase [8] = target: T1, Taq DNA polymerase; assay: AMC sensor, antibody immobilised; remark: listed apart in the source
Taq DNA polymerase [9] = target: T1, Taq DNA polymerase; assay: AMC sensor, antibody immobilised; remark: listed apart in the source

T1 sequence (P19821 whole entry): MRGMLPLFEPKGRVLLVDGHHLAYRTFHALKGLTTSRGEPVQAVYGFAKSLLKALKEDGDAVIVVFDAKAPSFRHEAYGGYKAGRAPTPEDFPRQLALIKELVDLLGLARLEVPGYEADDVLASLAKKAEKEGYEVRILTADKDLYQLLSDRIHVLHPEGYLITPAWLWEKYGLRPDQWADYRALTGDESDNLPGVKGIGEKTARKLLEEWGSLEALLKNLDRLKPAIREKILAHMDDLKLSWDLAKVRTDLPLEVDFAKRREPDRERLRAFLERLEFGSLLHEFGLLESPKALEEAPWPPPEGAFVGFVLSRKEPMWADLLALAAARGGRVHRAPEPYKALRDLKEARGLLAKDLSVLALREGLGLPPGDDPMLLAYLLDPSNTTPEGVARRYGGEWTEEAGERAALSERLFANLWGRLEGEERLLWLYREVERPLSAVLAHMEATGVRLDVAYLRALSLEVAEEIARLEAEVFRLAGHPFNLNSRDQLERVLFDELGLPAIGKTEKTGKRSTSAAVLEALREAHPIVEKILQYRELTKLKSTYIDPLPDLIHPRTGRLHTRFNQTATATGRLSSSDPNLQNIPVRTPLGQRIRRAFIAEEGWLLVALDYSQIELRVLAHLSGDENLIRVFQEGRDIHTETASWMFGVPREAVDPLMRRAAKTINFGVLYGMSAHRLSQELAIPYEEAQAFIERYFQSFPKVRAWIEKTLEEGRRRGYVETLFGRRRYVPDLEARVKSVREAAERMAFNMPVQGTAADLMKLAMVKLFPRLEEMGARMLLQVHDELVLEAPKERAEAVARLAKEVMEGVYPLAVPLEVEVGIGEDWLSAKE

- OD 450 nm (Taq DNA polymerase [1]): 0.035 OD
- OD 450 nm (Taq DNA polymerase [2]): 0.399 OD
- OD 450 nm (Taq DNA polymerase [3]): 2.1 OD
- Kd (Taq DNA polymerase [4]): 2.46 nM
- koff (Taq DNA polymerase [4]): 0.000145 s⁻¹
- kon (Taq DNA polymerase [4]): 59000 M⁻¹ s⁻¹
- OD 450 nm (Taq DNA polymerase [5]): 1.58 OD
- OD 450 nm (Taq DNA polymerase [6]): 0.798 OD
- OD 450 nm (Taq DNA polymerase [7]): 2.3 OD
- Kd (Taq DNA polymerase [8]): 2.46 nM
- koff (Taq DNA polymerase [8]): 0.000145 s⁻¹
- kon (Taq DNA polymerase [8]): 59000 M⁻¹ s⁻¹
B1: Anti-Taq 2C7 recombinant antibody (WT) (antibody, mouse IgG1, kappa, V domains shown)
VH: QVQLQQPGAELVKPGASVRLSCQTSVDTFSTYYLYWVKQRPGEGLEWIGGVNPTSNPVFDEKFKSKATLTVDTSSSTAYMQLSSLTSVDSAVYYCTRSILRRGYYPDYWGQGTALTVSS
VL: DIQMTQTTSSLSASLGDRVTISCRGSQDIQNYVNWYQQKPDGTIKLLIYFTSRLQSGIPSRFSGSGSGTDYSLTIANLEQEDIATYFCQQDDTIPVTWGAGTKVELKR
notes: Mouse antibody expressed in CHO cells; also called WT antibody; antibody of sample 1

- OD 450 nm (Taq DNA polymerase [1]): 0.047 OD
- OD 450 nm (Taq DNA polymerase [2]): 0.442 OD
- Kd (Taq DNA polymerase [9]): 0.384 nM
- koff (Taq DNA polymerase [9]): 3.78e-05 s⁻¹
- kon (Taq DNA polymerase [9]): 98300 M⁻¹ s⁻¹
- OD 450 nm (Taq DNA polymerase [3]): 2.14 OD
- OD 450 nm (Taq DNA polymerase [5]): 1.7 OD
- OD 450 nm (Taq DNA polymerase [6]): 0.887 OD
- OD 450 nm (Taq DNA polymerase [7]): 2.38 OD
- Kd (Taq DNA polymerase [8]): 0.384 nM
- koff (Taq DNA polymerase [8]): 3.78e-05 s⁻¹
- kon (Taq DNA polymerase [8]): 98300 M⁻¹ s⁻¹
B2: Mutation 1 (antibody, V domains shown)
VH: B1 VH with L34I, D60N, P106F
VL: B1 VL with G25A, F50Y, W98F
notes: also called mutation 1 antibody
